Literature values, collected in paper PMC11858487.

Target: EGFR (Homo sapiens) (UniProt P00533)

In the case of [99mTc]Tc-SYPIPDT-ECG-TAMRA, the Kd is given as 76.5 nM.
